# B1: Caveolin-1 (Homo sapiens), Q03135 (parent)
# chain: MSGGKYVDSEGHLYTVPIREQGNIYKPNNKAMADELSEKQVYDAHTKEIDLVNRDPKHLNDDVVKIDFEDVIAEPEGTHSFDGIWKASFTTFTVTKYWFYRLLSALFGIPMALIWGIYFAILSFLHIWAVVPCIKSFLIEIQCISRVYSIYVHTVCDPLFEAVGKIFSNVRINLQKEI
# partner: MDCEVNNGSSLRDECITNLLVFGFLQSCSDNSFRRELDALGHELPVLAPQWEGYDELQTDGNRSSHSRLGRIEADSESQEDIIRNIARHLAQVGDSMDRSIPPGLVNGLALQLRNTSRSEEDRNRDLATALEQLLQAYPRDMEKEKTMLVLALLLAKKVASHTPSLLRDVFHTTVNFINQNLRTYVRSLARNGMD
# Variants of: B1
# Conditions: with bid_human BID
row,effect of a mutation on the interaction,Variant
1,disrupting interaction,Y14F

# Reference: IntAct's records for PubMed 21382479
